Results on one molecule are retold here after article PMC5187420, “Structural insights into ribosomal rescue by Dom34 and Hbs1 at near-atomic resolution” (Nature Communications, 2016).

The target of the test is T1, Hbs1 (S. cerevisiae, UniProt P32769 1-611).
T1 construct: Hbs1, S. cerevisiae, eEF1A-like GTPase; N-terminal domain is seen in the map, linker aa 78-140 disordered; source: E. coli BL21 (DE3), purified (Nickel-NTA, size-exclusion chromatography)
T1 sequence (looked up): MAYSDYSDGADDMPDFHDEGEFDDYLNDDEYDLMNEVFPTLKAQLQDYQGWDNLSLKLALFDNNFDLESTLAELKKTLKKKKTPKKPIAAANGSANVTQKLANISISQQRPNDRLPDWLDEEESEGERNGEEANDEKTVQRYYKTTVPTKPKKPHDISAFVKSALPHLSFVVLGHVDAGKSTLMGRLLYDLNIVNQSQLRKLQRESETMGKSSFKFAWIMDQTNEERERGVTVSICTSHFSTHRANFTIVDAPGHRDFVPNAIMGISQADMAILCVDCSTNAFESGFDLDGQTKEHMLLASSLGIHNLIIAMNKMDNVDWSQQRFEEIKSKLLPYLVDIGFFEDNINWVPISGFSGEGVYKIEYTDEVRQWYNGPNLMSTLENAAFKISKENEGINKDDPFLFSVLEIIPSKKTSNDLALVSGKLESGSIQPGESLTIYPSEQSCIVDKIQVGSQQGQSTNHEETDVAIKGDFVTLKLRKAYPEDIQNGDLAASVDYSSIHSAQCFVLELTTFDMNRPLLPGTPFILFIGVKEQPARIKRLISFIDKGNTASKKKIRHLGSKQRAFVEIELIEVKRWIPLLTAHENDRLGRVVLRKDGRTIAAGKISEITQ
Briefly: cryo-EM structure; Dom34 and Hbs1 (50 pmol each) pre-incubated with 1 mM GMPPNP in binding buffer (30 mM Hepes pH 7.5), 20 min at 30 °C, then combined with 10 pmol reassociated S. cerevisiae 80S ribosomes programmed with nonstop mRNA and AcPhe-tRNAPhe, 15 min at 30 °C; reconstruction at 3.3 Å. To be noted: both partners purified.

B1: Dom34 (natural protein, S. cerevisiae)
chain: MKVISLKKDSFNKGGAVITLLPEDKEDLFTVYQIVDKDDELIFKKKFTSKLDEAGKKKSTDLVKLKIKVISEDFDMKDEYLKYKGVTVTDESGASNVDIPVGKYLSFTLDYVYPFTIIKQNFNKFMQKLLNEACNIEYKSDTAAVVLQEGIAHVCLVTSSSTILKQKIEYSMPKKKRTTDVLKFDEKTEKFYKAIYSAMKKDLNFDKLKTIILCSPGFYAKILMDKIFQYAEEEHNKKILDNKGMFFIAHCSTGYLQGINEVLKNPLYASKLQDTKYSKEIMVMDEFLLHLNKDDDKAWYGEKEVVKAAEYGAISYLLLTDKVLHSDNIAQREEYLKLMDSVESNGGKALVLSTLHSLGEELDQLTGIACILKYPLPDLDEDDGEE
notes: Dom34, S. cerevisiae; also called Pelota in mammals; source: E. coli BL21 (DE3), purified (Nickel-NTA, size-exclusion chromatography)
In the case of B1, the binding result is “binds”.
